Test results: PMC3201880 (Nucleic Acids Research, 2011)
Where two headings read alike, the source gives them in different places.

Tests used:
[1] = biological target: T1, TnpA-His6 (IS608 transposase) (Helicobacter pylori (IS608), UniProt Q933Z0 1-155); assay: EMSA
T1 sequence: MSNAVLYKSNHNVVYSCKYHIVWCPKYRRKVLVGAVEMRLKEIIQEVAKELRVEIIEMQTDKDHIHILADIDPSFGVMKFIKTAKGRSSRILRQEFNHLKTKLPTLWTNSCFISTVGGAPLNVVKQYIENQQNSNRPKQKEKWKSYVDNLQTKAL

[2] = biological target: T1, TnpA-His6 (IS608 transposase); assay: EMSA; remark: listed apart in the source
cross-linking = biological target: the molecule itself; assay: cross-linking
[3] = biological target: T1, TnpA-His6 (IS608 transposase); assay: EMSA; remark: listed apart in the source

B1: LE80 (ssDNA)
DNA: CGCTAGTGCAAAAATTACCAAAACTAACGCCTTAAAGCCCCTAGCTTTTAGCTATGGGGATACAAGGCGAAACGCCTTTA
binding result [1]: binds

GCTTTAGCTAGAATCCCCTAGCTTTAGCTATGGGGAGTATGTCAATTCG (ssDNA) [RE49]
binding result [2]: binds

B2: TnpA-His6 (transposase of IS608) (enzyme, Helicobacter pylori, UniProt Q933Z0 1-155, looked up)
chain: MSNAVLYKSNHNVVYSCKYHIVWCPKYRRKVLVGAVEMRLKEIIQEVAKELRVEIIEMQTDKDHIHILADIDPSFGVMKFIKTAKGRSSRILRQEFNHLKTKLPTLWTNSCFISTVGGAPLNVVKQYIENQQNSNRPKQKEKWKSYVDNLQTKAL
stoichiometry N (cross-linking): 2

B3: RE70 (ssDNA)
DNA: TTCCTCATGCTTTAGCTAGAATCCCCTAGCTTTAGCTATGGGGAGTATGTCAACAAATTTGCCTAATGAC
binding result [1]: binds

B4: RE56 (ssDNA)
DNA: CTCATGCTTTAGCTAGAATCCCCTAGCTTTAGCTATGGGGAGTATGTCAACAAATT
binding result [3]: binds

GAATCCCCTAGCTTTAGCTATGGGGAGTATGTCAACAAATTTGCC (ssDNA) [RE45]
binding result [3]: binds

GCTTTAGCTAGAATCCCCTAGCTTTAGCTATGGGGAGTATGTCAA (ssDNA) [RE45_pc (precleaved)]
binding result [3]: binds
